Experimental findings from the Human Domainome abundance scans (Beltran et al. 2025) are described below.

± gives the uncertainty stated by the source.

Sequences and labels used below:
B1: Triacylglycerol hydrolase DDHD2, residues 389 to 447; numbered along this chain, O94830 (parent)
chain: TLEEDLKKLQLSEFFDIFEKEKVDKEALALCTDRDLQEIGIPLGPRKKILNYFSTRKNS

The variants in the data set derive from B1. Put plainly: abundance fitness (aPCA) (normalised: wild type 0, dead -1); higher = more abundant; growth selection in yeast, the domain comes from the species named. To be noted: Homo sapiens.
Regarding TLEEDLKKLQLSEFFDIFEKEKVDKEALACCTDRDLQEIGIPLGPRKKILNYFSTRKNS, the abundance fitness was 0.593 ± 0.078.
To TLEEDLKKLQLSEFFDIFEKEKVDKEALAECTDRDLQEIGIPLGPRKKILNYFSTRKNS belongs 0.49 ± 0.09; to TLEEDLKKLQLSEFFDIFEKEKVDKEALAWCTDRDLQEIGIPLGPRKKILNYFSTRKNS, 0.263 ± 0.081; to TLEEDLKKLQLSEFFDIFEKEKVDKEALAACTDRDLQEIGIPLGPRKKILNYFSTRKNS, 0.477 ± 0.078.
To TLEEDLKKLQLSEFFDIFEKEKVDKEALANCTDRDLQEIGIPLGPRKKILNYFSTRKNS belongs 0.687 ± 0.086; to TLEEDLKKLQLSEFFDIFEKEKVDKEALAICTDRDLQEIGIPLGPRKKILNYFSTRKNS, 0.513 ± 0.1.
Next, TLEEDLKKLQLSEFFDIFEKEKVDKEALAPCTDRDLQEIGIPLGPRKKILNYFSTRKNS: -0.177 ± 0.092; TLEEDLKKLQLSEFFDIFEKEKVDKEALAYCTDRDLQEIGIPLGPRKKILNYFSTRKNS: 0.164 ± 0.1; TLEEDLKKLQLSEFFDIFEKEKVDKEALAMCTDRDLQEIGIPLGPRKKILNYFSTRKNS: 0.483 ± 0.085.
As to TLEEDLKKLQLSEFFDIFEKEKVDKEALALCHDRDLQEIGIPLGPRKKILNYFSTRKNS, the abundance fitness was -0.359 ± 0.14.
With TLEEDLKKLQLSEFFDIFEKEKVDKEALALCQDRDLQEIGIPLGPRKKILNYFSTRKNS, the abundance fitness is -0.251 ± 0.12.
To TLEEDLKKLQLSEFFDIFEKEKVDKEALALCKDRDLQEIGIPLGPRKKILNYFSTRKNS belongs 0.083 ± 0.097; to TLEEDLKKLQLSEFFDIFEKEKVDKEALALCGDRDLQEIGIPLGPRKKILNYFSTRKNS, -0.337 ± 0.069; to TLEEDLKKLQLSEFFDIFEKEKVDKEALALCMDRDLQEIGIPLGPRKKILNYFSTRKNS, -0.299 ± 0.1.
Next, TLEEDLKKLQLSEFFDIFEKEKVDKEALALCIDRDLQEIGIPLGPRKKILNYFSTRKNS: -0.924 ± 0.14; TLEEDLKKLQLSEFFDIFEKEKVDKEALALCFDRDLQEIGIPLGPRKKILNYFSTRKNS: -1.18 ± 0.2; TLEEDLKKLQLSEFFDIFEKEKVDKEALALCEDRDLQEIGIPLGPRKKILNYFSTRKNS: 0.056 ± 0.091.
For TLEEDLKKLQLSEFFDIFEKEKVDKEALALCDDRDLQEIGIPLGPRKKILNYFSTRKNS, the abundance fitness was -0.163 ± 0.097.
To TLEEDLKKLQLSEFFDIFEKEKVDKEALALCSDRDLQEIGIPLGPRKKILNYFSTRKNS belongs -0.053 ± 0.072; to TLEEDLKKLQLSEFFDIFEKEKVDKEALALCADRDLQEIGIPLGPRKKILNYFSTRKNS, -0.226 ± 0.086.
Next, TLEEDLKKLQLSEFFDIFEKEKVDKEALALCYDRDLQEIGIPLGPRKKILNYFSTRKNS: -0.388 ± 0.12.
On to TLEEDLKKLQLSEFFDIFEKEKVDKEALALCPDRDLQEIGIPLGPRKKILNYFSTRKNS, for which the abundance fitness was -0.589 ± 0.11.
To TLEEDLKKLQLSEFFDIFEKEKVDKEALALCCDRDLQEIGIPLGPRKKILNYFSTRKNS belongs -0.494 ± 0.1; to TLEEDLKKLQLSEFFDIFEKEKVDKEALALCNDRDLQEIGIPLGPRKKILNYFSTRKNS, -0.217 ± 0.13.
Next, TLEEDLKKLQLSEFFDIFEKEKVDKEALALCVDRDLQEIGIPLGPRKKILNYFSTRKNS: -0.631 ± 0.082; TLEEDLKKLQLSEFFDIFEKEKVDKEALALCLDRDLQEIGIPLGPRKKILNYFSTRKNS: -0.907 ± 0.1; TLEEDLKKLQLSEFFDIFEKEKVDKEALALCTARDLQEIGIPLGPRKKILNYFSTRKNS: -0.107 ± 0.075.
Next, TLEEDLKKLQLSEFFDIFEKEKVDKEALALCTHRDLQEIGIPLGPRKKILNYFSTRKNS: -0.283 ± 0.12; TLEEDLKKLQLSEFFDIFEKEKVDKEALALCTYRDLQEIGIPLGPRKKILNYFSTRKNS: -0.498 ± 0.12; TLEEDLKKLQLSEFFDIFEKEKVDKEALALCTPRDLQEIGIPLGPRKKILNYFSTRKNS: -0.659 ± 0.11.
For the variant TLEEDLKKLQLSEFFDIFEKEKVDKEALALCTGRDLQEIGIPLGPRKKILNYFSTRKNS, the abundance fitness is -0.199 ± 0.069.
To TLEEDLKKLQLSEFFDIFEKEKVDKEALALCTNRDLQEIGIPLGPRKKILNYFSTRKNS belongs -0.367 ± 0.1; to TLEEDLKKLQLSEFFDIFEKEKVDKEALALCTQRDLQEIGIPLGPRKKILNYFSTRKNS, -0.446 ± 0.11; to TLEEDLKKLQLSEFFDIFEKEKVDKEALALCTSRDLQEIGIPLGPRKKILNYFSTRKNS, -0.235 ± 0.07.
Next, TLEEDLKKLQLSEFFDIFEKEKVDKEALALCTRRDLQEIGIPLGPRKKILNYFSTRKNS: -0.576 ± 0.078; TLEEDLKKLQLSEFFDIFEKEKVDKEALALCTCRDLQEIGIPLGPRKKILNYFSTRKNS: -0.675 ± 0.14; TLEEDLKKLQLSEFFDIFEKEKVDKEALALCTVRDLQEIGIPLGPRKKILNYFSTRKNS: -0.693 ± 0.083.
On to TLEEDLKKLQLSEFFDIFEKEKVDKEALALCTFRDLQEIGIPLGPRKKILNYFSTRKNS, for which the abundance fitness is -0.609 ± 0.12.
Turning to TLEEDLKKLQLSEFFDIFEKEKVDKEALALCTWRDLQEIGIPLGPRKKILNYFSTRKNS, the abundance fitness is -0.51 ± 0.1.
Take TLEEDLKKLQLSEFFDIFEKEKVDKEALALCTIRDLQEIGIPLGPRKKILNYFSTRKNS: the abundance fitness is -0.821 ± 0.16.
To TLEEDLKKLQLSEFFDIFEKEKVDKEALALCTMRDLQEIGIPLGPRKKILNYFSTRKNS belongs 0.124 ± 0.095.
TLEEDLKKLQLSEFFDIFEKEKVDKEALALCTKRDLQEIGIPLGPRKKILNYFSTRKNS: the abundance fitness was -0.489 ± 0.1.
Next, TLEEDLKKLQLSEFFDIFEKEKVDKEALALCTERDLQEIGIPLGPRKKILNYFSTRKNS: -0.058 ± 0.099; TLEEDLKKLQLSEFFDIFEKEKVDKEALALCTLRDLQEIGIPLGPRKKILNYFSTRKNS: -0.339 ± 0.069; TLEEDLKKLQLSEFFDIFEKEKVDKEALALCTTRDLQEIGIPLGPRKKILNYFSTRKNS: -0.238 ± 0.093.
